In patent US20180080926A1:
Read-outs that look alike come from different tables or passages of the source.

What was measured:
[1] = molecular target: mitochondrial mitofusins; assay: cell-based or functional assay
[2] = molecular target: mitochondrial mitofusins; assay: cell-based or functional assay; remark: listed apart in the source

TAT-367-384Gly (peptide)
EC50 of mitochondrial elongation (enhanced fusion), mitochondrial aspect ratio in MEFs [1]: 280 nM

TAT-398-418Gly (peptide)
EC50 of mitochondrial shortening (suppressed fusion), mitochondrial aspect ratio in MEFs [1]: 250 nM

GELLAQDYKLRGGYGRKKRRQRRR [TetherX-C fusion construct]
EC50 of mitochondrial shortening (suppressed fusion), mitochondrial aspect ratio in MEFs [2]: 171 nM

GIMDSLHMAARGGYGRKKRRQRRR [GoFuse-C fusion construct]
EC50 of mitochondrial elongation (enhanced fusion), mitochondrial aspect ratio in MEFs [2]: 389 nM
